The supplement of paper PMC9170038

Tested on: MS2 coat protein
Experiment: apparent KD of MS2 coat protein; designed switch direction (-1 OFF switch, 1 ON switch): 1; higher = weaker reporter binding
Summary of the method: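 The reported apparent KD is a per-design median over clusters, from curve fits of normalised cluster fluorescence. Protein titrations used SNAP-549-labelled MS2 coat protein, doubled from 0.7 or 1.5 nM to 3 µM, in Tris-HCl pH 7.5 buffer with KCl, MgCl2, BSA, DTT, tRNA and Tween-20, with no input, 200 uM small-molecule ligand, or an oligonucleotide input. The RNA switches were transcribed on Illumina chips by stalled E. coli RNA polymerase.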

[1] = input ligand: microRNA oligo, concentration not stated
[2] = Eterna round: R95, input ligand: FMN 200 uM
[3] = Eterna round: R95, input ligand: microRNA oligo, concentration not stated
[4] = Eterna round: R95, input ligand: none

| Sequence | apparent KD of MS2 coat protein (input ligand: FMN 200 uM) [µM] | apparent KD of MS2 coat protein [1] [µM] | apparent KD of MS2 coat protein (input ligand: none) [µM] | apparent KD of MS2 coat protein [2] [µM] | apparent KD of MS2 coat protein [3] [µM] | apparent KD of MS2 coat protein [4] [µM] |
| --- | --- | --- | --- | --- | --- | --- |
| GCUAGUAAAAUUGCUAACAUGAGGAUCACCCAUGUAUGUUGGCAGGAUAUCGUUUGCAAAGCAAACGAGAAGGGCUAAACUAGC [Mat - Same State NG 3 - JL Mod - D15] (Eterna round: R96, puzzle: Same State NG 3) | 0.0302 | 0.0475 | 0.0868 | – | – | – |
| GCUCGAAUCACAACCAACAUGAGGAUCACCCAUGUGUGUUGGUAGGAUAUCGUUUCUAAGGGAAACGAGAAGGGCCGAACGAGC [SameState NG3 #8] (Eterna round: R96, puzzle: Same State NG 3) | 0.0189 | 0.0124 | 0.0217 | – | – | – |
| GCUCGAUGAGCGAUUUACAUGAGGAUCACCCAUGUACGUGGGCAGGAUAUUUACGUGCGGUGUGUAGAGAAGGGCCCAUCGAGC [SameState NG3 #71] (Eterna round: R96, puzzle: Same State NG 3) | 0.0625 | 0.206 | 0.332 | – | – | – |
| GCUCGAUGUGUUGUCUACAUGAGGAUCACCCAUGUAGGUGCGGAGGAUAUCUACGUGCUUUAUGUAGAGAAGGUCGUAUCGAGC [SameState NG3 #86] (Eterna round: R96, puzzle: Same State NG 3) | 0.0215 | 0.0543 | 0.0714 | – | – | – |
| GCUCGCACGAUGACCCACAUGAGGAUCACCCAUGUGCGUGGGCAGGAUAUCUAGAUUAAGGAUGUAGAGAAGGGUUGAGCGAGC [SameState NG3 #25] (Eterna round: R96, puzzle: Same State NG 3) | 0.555 | 0.136 | 0.302 | – | – | – |
| GCUCGCACGAUGACCCACAUGAGGAUCACCCAUGUGCUUGGGCAGGAUAUCUAGAUUAAGGAUGUAGAGAAGGGUUGAGCGAGC [SameState NG3 #27] (Eterna round: R96, puzzle: Same State NG 3) | 0.308 | 0.113 | 0.23 | – | – | – |
| GCUCGCGGCGCAGGAUAUGGGUGCCUGUACAUGAGGAUCACCCAUGUUAAGGGACGGAAAACGAACCAGAAGGGCGUCGCAAGC [Zaorquor] (Eterna round: R96, puzzle: Same State NG 2) | 0.056 | 0.167 | 0.14 | – | – | – |
| GCUCGGACGAUGACCCACAUGAGGAUCACCCAUGUGCGUGGGCAGGAUAUCUAGAUUAAGGAUGUAGAGAAGGGUCGACCGAGC [SameState NG3 #30] (Eterna round: R96, puzzle: Same State NG 3) | 0.415 | 0.0584 | 0.386 | – | – | – |
| GCUCUACAUGAGGAUCACCCAUGUCCGAACGCGCGAGGAUAUGCAUGGGCGAAAGCUGGUGCAGAAGGCGUGGGAC [2theCorner] (puzzle: Same State 1) | – | – | – | 0.315 | 0.202 | 0.358 |
| GCUCUACAUGAGGAUCACCCAUGUUCGGACGCACGAGGAUAUGCAUGGGCGAAAGCUGGUGCAGAAGGCGUGGGAC [inDCorner] (puzzle: Same State 1) | – | – | – | – | 0.15 | – |
| GCUGCAAGGGCAGGAUAUGGGUCCAGAGCGCAAGUGCGCCCUGGUACAUGAGGAUCACCCAUGUCCCAGAAGGGCCCAAGCAGC [Vetierribi] (Eterna round: R96, puzzle: Same State NG 2) | 0.0129 | 0.0689 | 0.0876 | – | – | – |
| GCUGCACAUGAGGAUCACCCAUGUCUUCGGAGUCGAGGAUAUGGUCACUGUAAACAGUGGCCAGAAGGCGAGUAGC [SS1 - Son of Teenbexe v6] (puzzle: Same State 1) | – | – | – | 0.0308 | 0.0378 | 0.0323 |
| GCUGGAAACCACAUGAGGAUCACCCAUGUUCCGGAAACGGCACAGGAUAUCUGUCCGAAAAGGUCAGAGAAGGGUGUAACCAGC [Fiskers NG3ss - 86] (Eterna round: R96, puzzle: Same State NG 3) | 0.19 | 0.338 | 0.245 | – | – | – |
| GGAAGGAGGUCAGGAUAUGAACGGAAGGUACAUGAGGAUCACCCAUGUUACGGAGGAAACCCACGUUAGAAGGGACAAGGAAGG [AK SSNG2-V2-4] (Eterna round: R96, puzzle: Same State NG 2) | 0.0196 | 0.0156 | 0.0305 | – | – | – |
| GGAAUAUGAUGUUACAUGAGGAUCACCCAUGUAGUGAUAACUAAGGAUAUUUGAAAGGGAGGAGAAGAGAAGGUAGGAUCAUAA [AK SSNG3-V2-11.1] (Eterna round: R96, puzzle: Same State NG 3) | 0.0607 | 0.0476 | 0.0637 | – | – | – |
